Reference: US20090099193

Biological target: TK substrate 1 (HTRF KinEASE-TK kit; Cisbio Inc.)

B1: EML4-ALK fusion polypeptide v3 having the FLAG tag at the N-terminus (protein)
chain: MDGFAGSLDDSISAASTSDVQDRLSALESRVQQQEDEITVLKAALADVLRRLAISEDHVASVKKSVSSKGQPSPRAVIPMSCITNGSGANRKPSHTSAVSIAGKETLSSAAKSGTEKKKEKPQGQREKKEESHSNDQSPQIRASPSPQPSSQPLQIHRQTPESKNATPTKSIKRPSPAEKSHNSWENSDDSRNKLSKIPSTPKLIPKVTKTADKHKDVIINQAKMSTRKKNSQVYRRKHQELQAMQMELQSPEYKLSKLRTSTIMTDYNPNYCFAGKTSSISDLKEVPRKNITLIRGLGHGAFGEVYEGQVSGMPNDPSPLQVAVKTLPEVCSEQDELDFLMEALIISKFNHQNIVRCIGVSLQSLPRFILLELMAGGDLKSFLRETRPRPSQPSSLAMLDLLHVARDIACGCQYLEENHFIHRDIAARNCLLTCPGPGRVAKIGDFGMARDIYRASYYRKGGCAMLPVKWMPPEAFMEGIFTSKTDTWSFGVLLWEIFSLGYMPYPSKSNQEVLEFVTSGGRMDPPKNCPGPVYRIMTQCWQHQPEDRPNFAIILERIEYCTQDPDVINTALPIEYGPLVEEEEKVPVRPKDPEGVPPLLVSQQAKREEERSPAAPPPLPTTSSGKAAKKPTAAEVSVRVPRGPAVEGGHVNMAFSQSNPPSELHRVHGSRNKPTSLWNPTYGSWFTEKPTKKNNPIAKKEPHERGNLGLEGSCTVPPNVATGRLPGASLLLEPSSLTANMKEVPLFRLRHFPCGNVNYGYQQQGLPLEAATAPGAGHYEDTILKSKNSMNQPGP
  count of HTRF (phosphorylation of the peptide substrate), 100 uM ATP against no ATP: increased by about 20 times by the addition of ATP compare to no addition of ATP
